Experimental findings from patent publication US20080280313 are described below.

Data set [1] concerns CKI phosphopeptide substrate KRRRALS(p)VASLPGL (New England Biolabs).
In data set [2] the test system is CKI substrate DDDEESITRR (Promega).
Data set [3] relates to CKII substrate RRADDSDDDDD (Calbiochem).
Data set [4] deals with CKII substrate RRREEETEEE (New England Biolabs).
Data set [5] has as its system CaM kinase II substrate (281-291) MHKNETVECLK (Calbiochem).
In data set [6] the test system is Syntide-2 substrate PLARTLSVAGLPGKK (Calbiochem).
For data set [7], the system named is kemptide LRRASLG (Promega).
The target of data set [8] is partially dephosphorylated α-casein (Sigma) (UniProt P02662).
The target in the next data set is β-casein (Sigma) (UniProt P02666).
Chain of β-casein (Sigma) (P02666 16-224): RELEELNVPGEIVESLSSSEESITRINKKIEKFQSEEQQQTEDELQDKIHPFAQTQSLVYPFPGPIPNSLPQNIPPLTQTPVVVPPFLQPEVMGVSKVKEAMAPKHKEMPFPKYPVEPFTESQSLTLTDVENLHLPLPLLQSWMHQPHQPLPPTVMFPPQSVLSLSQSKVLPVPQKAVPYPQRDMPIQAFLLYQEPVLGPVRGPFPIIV

Chain of partially dephosphorylated α-casein (Sigma) (P02662 16-214): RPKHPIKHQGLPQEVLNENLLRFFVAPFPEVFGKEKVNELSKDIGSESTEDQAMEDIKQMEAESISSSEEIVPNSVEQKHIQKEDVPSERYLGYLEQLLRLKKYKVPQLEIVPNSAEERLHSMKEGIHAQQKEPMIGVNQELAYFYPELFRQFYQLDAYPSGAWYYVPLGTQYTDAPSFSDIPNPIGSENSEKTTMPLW

For “native TgCKIα, partially purified from Toxoplasma gondii tachyzoites”, the Km(app) in data set [1] is 20 µM; in data set [8] it was 3 µM; in the data set with β-casein (Sigma), 13 µM. In addition, the “kinase activity with peptide substrate” value in data set [2], in data set [3], in data set [4], in [5], in [6] and in data set [7] was “failed to show concentration dependent kinase activity” each time.

Regarding “FLAGTgCKIα, N-terminal FLAG epitope tagged Toxoplasma gondii casein kinase I alpha”, the values for the Km(app) (in data set [1]; in [8]; with β-casein (Sigma)) were 80 µM, 4 µM and 30 µM, respectively. In addition, the Vmax(app) (nmole min^-1 mg^-1) in data set [1] was 26; in data set [8] it was 8; with β-casein (Sigma), 8. Moreover, the “kinase activity with peptide substrate” value in data set [2], in data set [3], in [4], in data set [5], in [6] and in data set [7] was “failed to show concentration dependent kinase activity” in each case.
